{
  "source": "patent US20200138870A1",
  "about": "“RECREATION OF PANCREATIC NICHE ALLOWS FOR NOVEL METHODS FOR HUMAN, MATURE BETA DERIVATION FROM PLURIPOTENT STEM CELLS” (Baylor College of Medicine, priority 2016, published 2020)",
  "molecules": {"B1": {"name": "WNT5A: secreted growth factor from the human pancreatic niche (R&D), used at 100 or 500 ng/ml (protein)", "chain": "IIGAQPLCSQLAGLSQGQKKLCHLYQDHMQYIGEGAKTGIKECQYQFRHRRWNCSTVDNTSVFGRVMQIGSRETAFTYAVSAAGVVNAMSRACREGELSTCGCSRAARPKDLPRDWLWGGCGDNIDYGYRFAKEFVDARERERIHAKGSYESARILMNLHNNEAGRRTVYNLADVACKCHGVSGSCSLKTCWLQLADFRKVGDALKEKYDSAAAMRLNSRGKLVQVNSRFNSPTTQDLVYIDPSPDYCVRNESTGSLGTQGRLCNKTSEGMDGCELMCCGRGYDQFKTVQTERCHCKFHWCCYVKCKKCTEIVDQFVCK"}},
  "type_in_all_cases": "cell-based, human",
  "key": {"hESC-derived EPs [1]": {"test_system": "hESC-derived EPs", "experiment": "Transwell migration and chemotaxis assay", "conditions": "100, 500 ng/ml WNT5A in bottom well", "procedure": "Transwell assays were performed using FluoroBlock Insert, […] pore size (Corning). The bottom 24 wells and the insert of transwell were coated with Geltrex to retained cells. At the experiment day, 1.5×10^5 hESC-derived EPs were seeded in each well at the transwell insert in B27 media with 10 μM Y-27632 and the well bottoms were replenished with either B27 media as control, B27 media+100 or 500 ng/ml WNT5A, or conditional media from Wk9.1, 17.5h and 20.1. After one week, the cell attached to the bottom wells were stained with Dapi and were counted."}, "hESC-derived EPs [2]": {"test_system": "hESC-derived EPs", "experiment": "qPCR-based gene expression analysis of WNT5A-treated EPs", "procedure": "Total RNA was isolated using TRIzol (Thermo Fisher Scientific) according to the manufacturer's protocol. DNAase (Qiagen) treatment was performed to remove genomic DNA. cDNA was synthesized using iScript (Biorad) by using […] of RNA. For qPCR, KAPA SYBR FAST (Kapa Biosystems) and Connect CFX light cycler (Biorad) for PCR reaction (<40 cycles were used). Primers were designed using qPrimerDepot in such way that the PCR product spans across exons junction. Primer specificity was checked using CFX manager software v3.1 […] and PCR product electrophoresis. Threshold data were analyzed by CFX manager software v3.1 using Comparative Ct relative quantitation method with TBP as internal control."}, "Smad": {"test_system": "Smad", "experiment": "Dual-pathway multicolor luciferase assay, Smad reporter", "conditions": "500 ng/ml WNT5A, at 36 and 48h", "from_the_text": "The dual-pathway luciferase reporter vector was generated using the GoldenBraid2.0 Assembly Platform (Sarrion-Perdigones et al., 2011; Sarrion-Perdigones et al., 2013). Briefly, transcriptional units comprising the promoter elements, the CDS of the corresponding luciferase and the bovine growth hormone terminator were first assembled, and then these were latter combined in successive rounds of assembly to build the multigenic vector used in this assay. For the multicolor luciferase assay, H1-derived EPs were first dissociated into 96-well plates using method previously described and incubated overnight to allow cell attachment. […] At the determined harvesting point, culture media was removed and wells were washed with PBS. […] 10 μL of LARII reagent was added with the built-in injectors and after 2 seconds, the total light and the BP filtered light emitted by the FLuc and RedF mixture were measured for 1 second. Finally, 15 μL of Stop & Glo® reagent were injected and after 4 seconds the emitted light by Renilla luciferase was measured. The activity corresponding to FLuc and RedF that were simultaneously measured after the LARII reagent was added were calculated according to the method proposed by Nakayima et al (Nakajima et al., 2005) that is adjusted to this particular assay and explained in FIG. 7D."}, "hESC-derived EPs [3]": {"test_system": "hESC-derived EPs", "experiment": "RNA-sequencing of EPs treated with WNT5A", "procedure": "Total RNA was extracted as described elsewhere herein and RNA quality was assessed using 2100 Bioanalyzer (Agilent Genomics). Samples with RIN≥9 preceded to library preparation using TruSeq stranded mRNA Library Prep Kit LT (Illumina) according to the manufacturer's protocol. Library concentration was determined by qPCR (KAPA Library Quantification Kit) to pool equal amounts of libraries with different adaptor indexes. Sequencing was performed using NextSeq500 (Illumina).\nAfter preliminary analyses, showing a significant Pearson Correlation Coeficient for gene expression, two biological replicates were concatenated and analysed as single samples. This step yielded four samples, two for each treatment (5 days and 12h), as well as untreated samples. All reads were considered single-end in the bioinformatic analyses.\nFor Venn diagram, TFactS analysis and Gene enrichment analysis (GSEA), sequencing reads were first aligned using TopHat and the gene differential expression were assembled and analyzed using Cufflinks. […] To predict which transcription factors are responsible to the gene changes in the sequencing result, TFactS analysis was performed by inputting up and down regulation gene lists. […] For GSEA (http://software.broadinstitute.org/gsea/index.jsp), all input files were generated through GenePattern and the analysis was performed based on the instruction from Broad institute GSEA user guide with the following parameter: phenotype labels as 5dUT versus 5dWNT5A, 1000 genes set of permutations, weighted enrichment statistic, gene sets between 15 to 500, with log 2 ratio of class as metric for ranking genes. […] Data GEO submission number: GSE 90785."}, "[4]": {"conditions": "5-day long treatment with WNT5A"}},
  "data": [
    {"molecule": "B1", "values": [
      {"measurement": "chemoattractant activity on EP migration (in words)", "setting": "hESC-derived EPs [1]", "value": "does not act as a chemoattractant"},
      {"measurement": "GCG expression compared to untreated cells (in words)", "setting": "hESC-derived EPs [2]; 5-day WNT5A-treated cells", "value": "decreased"},
      {"measurement": "INS, CHGA, ONECUT1 and PCSK2 expression compared to untreated cells (in words)", "setting": "hESC-derived EPs [2]; 5-day WNT5A-treated cells", "value": "increased"},
      {"measurement": "BMP3, BMP4 and BMP6 expression by qPCR (in words)", "setting": "hESC-derived EPs [2]; 5 day-WNT5A treatment", "value": "downregulation"},
      {"measurement": "BMP inhibitor BMPER expression by qPCR (in words)", "setting": "hESC-derived EPs [2]; 5 day-WNT5A treatment", "value": "upregulation"},
      {"measurement": "Smad activity (in words)", "setting": "Smad", "value": "decreases"},
      {"measurement": "downregulation of GCG", "setting": "hESC-derived EPs [3]; 5-day WNT5A treatment", "value": 5, "unit": "fold"},
      {"measurement": "downregulation of MAFB", "setting": "hESC-derived EPs [3]; 5-day WNT5A treatment", "value": 3, "unit": "fold"},
      {"measurement": "downregulation of NGN3", "setting": "hESC-derived EPs [3]; 5-day WNT5A treatment", "value": 2, "unit": "fold"},
      {"measurement": "up-regulation of GCK", "setting": "hESC-derived EPs [3]; 5-day WNT5A treatment", "value": 9, "unit": "fold"},
      {"measurement": "up-regulation of INS", "setting": "hESC-derived EPs [3]; 5-day WNT5A treatment", "value": 81, "unit": "fold"},
      {"measurement": "up-regulation of NEUROD1", "setting": "hESC-derived EPs [3]; 5-day WNT5A treatment", "value": 56, "unit": "fold"},
      {"measurement": "up-regulation of PCSK2", "setting": "hESC-derived EPs [3]; 5-day WNT5A treatment", "value": 7, "unit": "fold"},
      {"measurement": "up-regulation of SYT4", "setting": "hESC-derived EPs [3]; 5-day WNT5A treatment", "value": 16, "unit": "fold"},
      {"measurement": "expression of BMP3, 4, and 6, GDF5 and 9 (in words)", "setting": "hESC-derived EPs [3]; [4]", "value": "downregulated"},
      {"measurement": "expression of DCN and BMP antagonist BMPER (in words)", "setting": "hESC-derived EPs [3]; [4]", "value": "upregulated"}
    ]}
  ]
}
